Measurements: the supplement of paper PMC9112550, “Optimization of the antimicrobial peptide Bac7 by deep mutational scanning” (BMC Biology, 2022)

system: Escherichia coli TOP10; assay: shrunken log2 fold change of peptide-encoding DNA abundance (4.5 h post-induction vs induction); higher = less antimicrobial activity (less host growth inhibition); conditions: time post-induction: 4.5 h; library: site-saturation at positions 5, 18, 19, 20
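Note: peptides expressed intracellularly from a pBAD plasmid library in pooled LB shake-flask culture, induced with 0.3% L-arabinose, DNA abundance read by NGS, three biological replicates, DESeq2 with apeglm shrinkage.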

In order of falling “shrunken log2 fold change” value:
1. RRIRGRPPRLPRPRPRPESMPRP  1.19
2. RRIRGRPPRLPRPRPRPMRNPRP  1.09
3. RRIRPRPPRLPRPRPRPLDTPRP  1
4. RRIRRRPPRLPRPRPRPPPKPRP  0.995
5. RRIRMRPPRLPRPRPRPTPMPRP  0.981
6. RRIRSRPPRLPRPRPRPRGVPRP  0.749
7. RRIRMRPPRLPRPRPRPKHGPRP  0.742
8. RRIRARPPRLPRPRPRPTRHPRP  0.615
9. RRIRKRPPRLPRPRPRPAVWPRP  0.563
10. RRIRKRPPRLPRPRPRPFCRPRP  0.558
11. RRIRWRPPRLPRPRPRPIGWPRP  0.534
12. RRIRPRPPRLPRPRPRPAAKPRP  0.435
13. RRIRIRPPRLPRPRPRPPWPPRP  0.397
14. RRIRGRPPRLPRPRPRPRQFPRP  0.354
15. RRIRRRPPRLPRPRPRPLWRPRP  0.348
16. RRIRGRPPRLPRPRPRPTNRPRP  0.258
17. RRIRCRPPRLPRPRPRPEHVPRP  0.229
18. RRIRHRPPRLPRPRPRPSAEPRP  0.217
19. RRIRARPPRLPRPRPRPDCDPRP  0.214
20. RRIRQRPPRLPRPRPRPIPAPRP  0.214
21. RRIRMRPPRLPRPRPRPKEYPRP  0.189
22. RRIRMRPPRLPRPRPRPYTAPRP  0.147
23. RRIRMRPPRLPRPRPRPAMCPRP  0.124
24. RRIRSRPPRLPRPRPRPRTQPRP  0.107
25. RRIRTRPPRLPRPRPRPFPTPRP  0.105
26. RRIRQRPPRLPRPRPRPMRYPRP  0.0851
27. RRIRFRPPRLPRPRPRPIVEPRP  0.0776
28. RRIRKRPPRLPRPRPRPVLDPRP  0.0689
29. RRIRVRPPRLPRPRPRPHRCPRP  0.0572
30. RRIRHRPPRLPRPRPRPGREPRP  0.0529
31. RRIRHRPPRLPRPRPRPSQGPRP  0.0306
32. RRIRDRPPRLPRPRPRPPLYPRP  0.0303
33. RRIRCRPPRLPRPRPRPQTEPRP  0.0248
34. RRIRLRPPRLPRPRPRPETIPRP  0.0243
35. RRIRFRPPRLPRPRPRPELDPRP  0.0203
36. RRIRKRPPRLPRPRPRPQDGPRP  0.013
37. RRIRHRPPRLPRPRPRPEQWPRP  0.0101
38. RRIRWRPPRLPRPRPRPKPVPRP  0.006
39. RRIRHRPPRLPRPRPRPWKMPRP  0.00115
40. RRIRERPPRLPRPRPRPWKPPRP  -0.00455
41. RRIRFRPPRLPRPRPRPWWGPRP  -0.00459
42. RRIRERPPRLPRPRPRPGNDPRP  -0.0081
43. RRIRHRPPRLPRPRPRPTSSPRP  -0.0142
44. RRIRQRPPRLPRPRPRPIWCPRP  -0.0171
45. RRIRTRPPRLPRPRPRPSGIPRP  -0.0172
46. RRIRYRPPRLPRPRPRPQDNPRP  -0.024
47. RRIRKRPPRLPRPRPRPFWCPRP  -0.0466
48. RRIRERPPRLPRPRPRPYHWPRP  -0.0488
49. RRIRFRPPRLPRPRPRPSRRPRP  -0.0576
50. RRIRCRPPRLPRPRPRPWHEPRP  -0.0591
51. RRIRHRPPRLPRPRPRPIFMPRP  -0.0784
52. RRIRFRPPRLPRPRPRPRFRPRP  -0.0973
53. RRIRPRPPRLPRPRPRPISIPRP  -0.109
54. RRIRLRPPRLPRPRPRPPHKPRP  -0.113
55. RRIRKRPPRLPRPRPRPGMFPRP  -0.126
56. RRIRIRPPRLPRPRPRPKDVPRP  -0.141
57. RRIRGRPPRLPRPRPRPDHRPRP  -0.178
58. RRIRERPPRLPRPRPRPFGHPRP  -0.224
59. RRIRWRPPRLPRPRPRPKWYPRP  -0.235
60. RRIRYRPPRLPRPRPRPLCEPRP  -0.238
61. RRIRLRPPRLPRPRPRPLCHPRP  -0.253
62. RRIRTRPPRLPRPRPRPPNKPRP  -0.275
63. RRIRWRPPRLPRPRPRPQFHPRP  -0.275
64. RRIRCRPPRLPRPRPRPLSLPRP  -0.305
65. RRIRNRPPRLPRPRPRPHWFPRP  -0.318
66. RRIRHRPPRLPRPRPRPPYLPRP  -0.321
67. RRIRCRPPRLPRPRPRPANYPRP  -0.342
68. RRIRNRPPRLPRPRPRPSDKPRP  -0.363
69. RRIRIRPPRLPRPRPRPRHDPRP  -0.385
70. RRIRFRPPRLPRPRPRPLTMPRP  -0.396
71. RRIRERPPRLPRPRPRPQKNPRP  -0.49
72. RRIRPRPPRLPRPRPRPWYHPRP  -0.516
73. RRIRIRPPRLPRPRPRPYSEPRP  -0.535
74. RRIRCRPPRLPRPRPRPYWYPRP  -0.553
75. RRIRSRPPRLPRPRPRPFIPPRP  -0.629
